The results in this text go back to patent US9176064B2, “Bisubstrate fluorescent probes for protein kinase CK2” (University of Tartu, priority 2012, dated 2015).

Where a SMILES comes first, the peptide text is derived from it. [ ]: non-standard residue; d: D form. The star is where a group is joined. X1 = O=C(CCCCCCCn1cnc2c(Br)c(Br)c(Br)c(Br)c21)*

Test in all cases: Kinase panel residual activity
What all share (format): biochemical
What all share (settings): compound at 1 micromolar

Data set [1] has as its target T1, TAK1 (Homo sapiens, UniProt O43318).
T1 sequence (O43318 1-303 limits assumed): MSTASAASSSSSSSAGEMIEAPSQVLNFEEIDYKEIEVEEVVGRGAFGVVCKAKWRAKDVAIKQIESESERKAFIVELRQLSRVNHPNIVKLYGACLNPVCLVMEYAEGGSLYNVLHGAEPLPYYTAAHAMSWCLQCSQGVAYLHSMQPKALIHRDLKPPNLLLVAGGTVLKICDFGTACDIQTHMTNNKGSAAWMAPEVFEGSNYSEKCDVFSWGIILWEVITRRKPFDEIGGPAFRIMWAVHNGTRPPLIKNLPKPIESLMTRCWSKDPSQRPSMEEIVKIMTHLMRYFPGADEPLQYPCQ

The target in data set [2] is MAPKAP-K3 (Homo sapiens, UniProt Q16644).
The target of data set [3] is PAK4 (Homo sapiens, UniProt O96013).
Data set [4] deals with MARK3 (Homo sapiens, UniProt P27448).
Data set [5] has as its target TESK1 (Homo sapiens, UniProt Q15569).
For data set [6], the target named is MARK1 (Homo sapiens, UniProt Q9P0L2).
The target in data set [7] is DAPK1 (Homo sapiens, UniProt P53355).
Data set [8] deals with T2, PDK1 (Homo sapiens, UniProt O15530).
T2 sequence (O15530 1-556): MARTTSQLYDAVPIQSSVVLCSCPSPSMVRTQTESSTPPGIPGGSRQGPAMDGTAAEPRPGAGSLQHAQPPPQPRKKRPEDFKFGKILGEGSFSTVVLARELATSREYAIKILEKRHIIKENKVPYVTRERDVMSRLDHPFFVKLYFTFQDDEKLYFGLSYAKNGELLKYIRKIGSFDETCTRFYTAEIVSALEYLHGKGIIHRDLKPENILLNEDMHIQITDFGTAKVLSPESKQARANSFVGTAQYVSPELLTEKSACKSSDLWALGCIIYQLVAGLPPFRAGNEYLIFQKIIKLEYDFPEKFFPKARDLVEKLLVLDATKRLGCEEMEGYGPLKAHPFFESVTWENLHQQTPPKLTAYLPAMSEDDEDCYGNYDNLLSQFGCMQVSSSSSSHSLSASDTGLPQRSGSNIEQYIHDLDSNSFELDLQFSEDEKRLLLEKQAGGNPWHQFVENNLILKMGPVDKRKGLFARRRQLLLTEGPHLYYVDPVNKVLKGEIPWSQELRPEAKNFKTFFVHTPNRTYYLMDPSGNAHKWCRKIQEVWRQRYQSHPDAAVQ

Data set [9] concerns the target PIM2 (Homo sapiens, UniProt Q9P1W9).
For data set [10], the target named is T3, NEK2a (Homo sapiens, UniProt P51955).
T3 sequence (P51955 1-445): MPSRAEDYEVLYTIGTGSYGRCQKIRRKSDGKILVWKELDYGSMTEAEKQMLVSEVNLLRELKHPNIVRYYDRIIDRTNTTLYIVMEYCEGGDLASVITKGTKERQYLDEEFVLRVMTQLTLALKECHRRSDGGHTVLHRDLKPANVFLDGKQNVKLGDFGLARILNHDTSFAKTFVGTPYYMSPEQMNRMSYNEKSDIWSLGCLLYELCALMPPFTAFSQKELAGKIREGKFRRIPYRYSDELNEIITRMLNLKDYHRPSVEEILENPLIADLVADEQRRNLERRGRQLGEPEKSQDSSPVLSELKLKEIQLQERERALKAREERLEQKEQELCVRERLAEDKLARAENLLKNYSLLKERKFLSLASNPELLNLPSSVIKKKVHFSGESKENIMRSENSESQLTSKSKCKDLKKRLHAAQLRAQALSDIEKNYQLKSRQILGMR

Data set [11] has as its target SmMLCK (Homo sapiens, UniProt Q15746).
Data set [12] addresses MST3 (Homo sapiens, UniProt Q9Y6E0).
The target of data set [13] is PKA (Homo sapiens, UniProt P17612).
Data set [14] deals with Aurora B (Homo sapiens, UniProt Q96GD4).
Data set [15] has as its target PKCγ (Homo sapiens, UniProt P05129).
Data set [16] has as its target BRK (Homo sapiens, UniProt Q13882).
The target in data set [17] is MST4 (Homo sapiens, UniProt Q9P289).
The target of data set [18] is p38a MAPK (Homo sapiens, UniProt Q16539).
Data set [19] has as its target EPH-A4 (Homo sapiens, UniProt P54764).
The target in data set [20] is T4, Aurora A (Homo sapiens, UniProt O14965).
T4 sequence (O14965 1-403): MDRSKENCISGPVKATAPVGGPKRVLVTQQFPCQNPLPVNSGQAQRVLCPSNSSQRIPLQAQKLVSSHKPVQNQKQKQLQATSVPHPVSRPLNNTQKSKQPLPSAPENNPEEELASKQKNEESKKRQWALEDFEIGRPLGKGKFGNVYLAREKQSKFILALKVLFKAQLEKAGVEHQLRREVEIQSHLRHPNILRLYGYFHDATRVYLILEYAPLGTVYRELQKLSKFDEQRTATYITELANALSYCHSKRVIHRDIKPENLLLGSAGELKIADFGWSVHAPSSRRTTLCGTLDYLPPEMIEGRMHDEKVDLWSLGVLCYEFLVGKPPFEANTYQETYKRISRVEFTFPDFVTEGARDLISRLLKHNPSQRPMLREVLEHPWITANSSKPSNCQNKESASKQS

The target of data set [21] is NEK6 (Homo sapiens, UniProt Q9HC98).
The target of data set [22] is OSR1 (Homo sapiens, UniProt O95747).

The remaining activity is the signal under treatment as a percentage of the control signal.

Chain of MARK1 (Q9P0L2 whole entry, species assumed): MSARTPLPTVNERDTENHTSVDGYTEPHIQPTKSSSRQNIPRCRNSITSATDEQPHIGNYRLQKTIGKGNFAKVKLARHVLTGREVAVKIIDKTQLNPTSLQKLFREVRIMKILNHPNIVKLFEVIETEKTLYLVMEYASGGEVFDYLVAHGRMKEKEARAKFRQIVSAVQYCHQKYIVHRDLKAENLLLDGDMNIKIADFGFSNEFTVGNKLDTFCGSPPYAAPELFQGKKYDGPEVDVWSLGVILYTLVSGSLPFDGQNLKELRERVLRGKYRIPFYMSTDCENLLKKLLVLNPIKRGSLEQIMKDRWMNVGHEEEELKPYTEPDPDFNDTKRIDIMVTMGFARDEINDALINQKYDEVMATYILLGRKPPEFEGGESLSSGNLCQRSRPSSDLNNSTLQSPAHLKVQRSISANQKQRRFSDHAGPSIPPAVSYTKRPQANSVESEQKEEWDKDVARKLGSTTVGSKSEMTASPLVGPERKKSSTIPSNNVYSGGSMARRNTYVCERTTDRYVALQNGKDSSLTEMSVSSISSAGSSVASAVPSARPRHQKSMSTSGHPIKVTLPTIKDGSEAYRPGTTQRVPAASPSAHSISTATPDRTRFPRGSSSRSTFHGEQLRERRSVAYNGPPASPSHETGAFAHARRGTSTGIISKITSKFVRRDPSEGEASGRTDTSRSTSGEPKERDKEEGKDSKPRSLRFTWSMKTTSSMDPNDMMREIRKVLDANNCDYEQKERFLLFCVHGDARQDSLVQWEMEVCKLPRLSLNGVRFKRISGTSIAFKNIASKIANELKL
Chain of BRK (Q13882 whole entry, species assumed): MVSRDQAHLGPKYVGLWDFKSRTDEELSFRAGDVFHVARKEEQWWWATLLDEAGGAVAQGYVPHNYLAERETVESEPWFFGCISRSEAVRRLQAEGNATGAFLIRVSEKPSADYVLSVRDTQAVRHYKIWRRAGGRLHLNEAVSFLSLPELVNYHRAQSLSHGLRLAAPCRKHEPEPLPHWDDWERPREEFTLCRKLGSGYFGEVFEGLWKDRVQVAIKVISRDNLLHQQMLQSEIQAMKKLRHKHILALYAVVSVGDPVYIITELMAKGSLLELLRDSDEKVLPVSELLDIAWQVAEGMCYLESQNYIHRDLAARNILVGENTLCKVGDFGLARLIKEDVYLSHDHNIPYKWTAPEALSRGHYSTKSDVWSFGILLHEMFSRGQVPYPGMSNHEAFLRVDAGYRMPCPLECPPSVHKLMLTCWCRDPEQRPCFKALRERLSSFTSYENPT
Chain of DAPK1 (P53355 whole entry, species assumed): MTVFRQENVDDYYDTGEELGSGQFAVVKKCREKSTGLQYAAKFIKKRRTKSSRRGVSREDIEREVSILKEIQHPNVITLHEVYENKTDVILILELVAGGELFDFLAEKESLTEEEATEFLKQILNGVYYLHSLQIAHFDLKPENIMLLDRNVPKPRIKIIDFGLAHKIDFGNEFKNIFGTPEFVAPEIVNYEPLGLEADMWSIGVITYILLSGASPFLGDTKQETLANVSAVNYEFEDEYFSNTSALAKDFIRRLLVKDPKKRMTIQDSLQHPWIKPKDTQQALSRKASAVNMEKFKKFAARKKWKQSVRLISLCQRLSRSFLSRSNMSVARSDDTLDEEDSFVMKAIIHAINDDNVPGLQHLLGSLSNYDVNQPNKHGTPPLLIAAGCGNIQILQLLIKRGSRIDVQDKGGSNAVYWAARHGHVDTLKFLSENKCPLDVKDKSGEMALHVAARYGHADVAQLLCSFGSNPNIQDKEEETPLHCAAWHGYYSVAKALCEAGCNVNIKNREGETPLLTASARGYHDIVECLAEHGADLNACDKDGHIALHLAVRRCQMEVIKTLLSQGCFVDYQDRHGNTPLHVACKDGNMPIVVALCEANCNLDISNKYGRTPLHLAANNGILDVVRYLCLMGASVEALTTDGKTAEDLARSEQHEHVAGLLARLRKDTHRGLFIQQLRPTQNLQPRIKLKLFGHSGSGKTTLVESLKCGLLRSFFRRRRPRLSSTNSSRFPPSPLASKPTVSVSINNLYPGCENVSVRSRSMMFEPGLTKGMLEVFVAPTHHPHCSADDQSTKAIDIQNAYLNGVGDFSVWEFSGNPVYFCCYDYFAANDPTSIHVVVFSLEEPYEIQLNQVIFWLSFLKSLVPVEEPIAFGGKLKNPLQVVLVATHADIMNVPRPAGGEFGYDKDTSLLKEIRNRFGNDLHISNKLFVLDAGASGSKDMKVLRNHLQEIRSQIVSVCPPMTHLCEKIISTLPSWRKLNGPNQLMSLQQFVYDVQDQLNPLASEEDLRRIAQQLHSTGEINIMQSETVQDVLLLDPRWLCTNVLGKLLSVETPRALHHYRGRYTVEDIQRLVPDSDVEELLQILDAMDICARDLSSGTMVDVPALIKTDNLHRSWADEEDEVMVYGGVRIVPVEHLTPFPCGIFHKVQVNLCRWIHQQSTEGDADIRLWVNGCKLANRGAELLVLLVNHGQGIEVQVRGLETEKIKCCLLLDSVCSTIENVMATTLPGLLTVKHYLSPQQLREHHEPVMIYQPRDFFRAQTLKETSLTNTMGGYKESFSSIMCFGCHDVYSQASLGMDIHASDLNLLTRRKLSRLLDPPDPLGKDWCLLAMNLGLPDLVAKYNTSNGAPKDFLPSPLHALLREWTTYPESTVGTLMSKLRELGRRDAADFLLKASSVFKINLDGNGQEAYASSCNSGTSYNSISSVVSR
Chain of MST3 (Q9Y6E0 whole entry, species assumed): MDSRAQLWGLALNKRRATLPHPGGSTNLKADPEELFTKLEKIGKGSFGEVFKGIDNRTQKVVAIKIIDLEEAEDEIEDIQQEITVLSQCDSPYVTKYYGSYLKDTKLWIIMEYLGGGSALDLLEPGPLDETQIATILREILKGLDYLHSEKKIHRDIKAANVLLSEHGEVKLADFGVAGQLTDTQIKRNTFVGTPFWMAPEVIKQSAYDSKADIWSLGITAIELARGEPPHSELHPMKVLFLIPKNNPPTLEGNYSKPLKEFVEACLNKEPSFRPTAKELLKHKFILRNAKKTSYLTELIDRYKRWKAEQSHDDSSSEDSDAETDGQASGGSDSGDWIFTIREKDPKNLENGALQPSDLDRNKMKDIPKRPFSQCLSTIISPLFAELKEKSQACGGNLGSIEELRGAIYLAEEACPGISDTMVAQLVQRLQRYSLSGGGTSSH
Chain of PIM2 (Q9P1W9 whole entry, species assumed): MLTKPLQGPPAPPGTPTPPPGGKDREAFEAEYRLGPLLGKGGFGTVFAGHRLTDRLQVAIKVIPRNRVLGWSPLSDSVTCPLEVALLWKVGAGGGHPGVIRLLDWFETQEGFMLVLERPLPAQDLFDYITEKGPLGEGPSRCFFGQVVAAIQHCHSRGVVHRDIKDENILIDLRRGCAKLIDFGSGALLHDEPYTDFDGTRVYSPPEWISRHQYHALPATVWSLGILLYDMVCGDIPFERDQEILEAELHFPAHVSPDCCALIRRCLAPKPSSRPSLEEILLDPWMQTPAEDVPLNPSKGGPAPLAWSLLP
Chain of Aurora B (Q96GD4 whole entry): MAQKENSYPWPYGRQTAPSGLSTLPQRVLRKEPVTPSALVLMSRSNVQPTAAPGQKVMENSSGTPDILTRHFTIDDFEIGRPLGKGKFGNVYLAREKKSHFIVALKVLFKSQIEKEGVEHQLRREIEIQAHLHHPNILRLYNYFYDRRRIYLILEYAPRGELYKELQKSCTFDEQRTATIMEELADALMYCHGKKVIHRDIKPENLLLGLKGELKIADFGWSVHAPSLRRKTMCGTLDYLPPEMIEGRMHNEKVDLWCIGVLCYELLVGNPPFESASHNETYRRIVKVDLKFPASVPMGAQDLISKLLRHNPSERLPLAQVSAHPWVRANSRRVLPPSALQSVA
Chain of TESK1 (Q15569 whole entry, species assumed): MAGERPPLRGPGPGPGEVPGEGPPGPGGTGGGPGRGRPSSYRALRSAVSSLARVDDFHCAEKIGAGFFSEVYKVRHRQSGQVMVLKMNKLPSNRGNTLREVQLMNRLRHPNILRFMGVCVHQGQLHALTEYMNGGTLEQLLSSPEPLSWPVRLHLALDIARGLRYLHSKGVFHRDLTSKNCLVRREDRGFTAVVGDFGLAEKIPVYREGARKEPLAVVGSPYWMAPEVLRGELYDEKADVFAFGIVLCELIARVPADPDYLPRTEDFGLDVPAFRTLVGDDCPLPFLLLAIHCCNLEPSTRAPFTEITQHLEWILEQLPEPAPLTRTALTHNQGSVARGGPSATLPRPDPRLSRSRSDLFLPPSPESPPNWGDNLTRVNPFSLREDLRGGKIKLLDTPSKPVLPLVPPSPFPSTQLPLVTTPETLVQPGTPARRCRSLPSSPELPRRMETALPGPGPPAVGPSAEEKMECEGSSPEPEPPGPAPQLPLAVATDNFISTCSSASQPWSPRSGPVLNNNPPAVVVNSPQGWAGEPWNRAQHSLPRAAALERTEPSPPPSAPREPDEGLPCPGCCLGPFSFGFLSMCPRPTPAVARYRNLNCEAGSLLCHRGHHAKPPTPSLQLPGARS
Chain of p38a MAPK (Q16539 whole entry): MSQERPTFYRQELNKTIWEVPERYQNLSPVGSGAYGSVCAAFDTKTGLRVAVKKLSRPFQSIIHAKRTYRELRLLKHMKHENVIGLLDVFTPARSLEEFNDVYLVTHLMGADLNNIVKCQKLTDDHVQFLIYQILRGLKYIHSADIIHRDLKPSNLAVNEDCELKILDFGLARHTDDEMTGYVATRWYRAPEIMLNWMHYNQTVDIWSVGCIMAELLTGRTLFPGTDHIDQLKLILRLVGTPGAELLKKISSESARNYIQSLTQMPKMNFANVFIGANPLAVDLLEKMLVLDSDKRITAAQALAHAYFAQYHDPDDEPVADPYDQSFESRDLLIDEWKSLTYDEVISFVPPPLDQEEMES

Consider `NCCCC[C@H](NC(=O)[C@H](CC(=O)O)NC(=O)[C@H](CC(=O)O)NC(=O)[C@H](CC(=O)O)NC(=O)[C@H](CC(=O)O)NC(=O)[C@H](CC(=O)O)NC(=O)[C@@H](CC(=O)O)NC(=O)CCCCCCCn1cnc2c(Br)c(Br)c(Br)c(Br)c21)C(=O)O` [TBBI-OcA-(D-Asp)-(L-Asp)5-(L-Lys)-OH] (X1-[dD]DDDDDK-OH), for which the remaining activity at 1 µM came to 62% in data set [1]; 69% in [2]; 71% in [3]; 73% in [4]; 81% in [5]; 83% in data set [6]. Further, the remaining activity at 1 µM came out at 84% in data set [7]; 86% in [8]; 92% in [9]; 94% in data set [10]; 96% in data set [11]; 100% in data set [12]. Further, the remaining activity at 1 µM in data set [13] is 100%; in data set [14] it was 100%; in data set [15], 106%; in data set [16] it was 113%; in data set [17], 114%; in data set [18], 116%. For the same compound, the remaining activity at 1 µM in [19] was found to be 117%; in data set [20], 118%; in data set [21] it was 121%; in data set [22] it was 130%.
